For 72 molecules, Binding affinity and Binding affinity (RU) results are on record in patent US20250011363A1, “OPTIMIZED SHORTENED PEPTIDE THAT BINDS TO ACETYLCHOLINE RECEPTOR, AND USE THEREOF” (SKINMED CO., LTD., priority 2021, published 2025).

For test [1], the target named is acetylcholine receptor. Briefly: SPR, peptide at 10 uM.
Test [2] deals with acetylcholine receptor. In words: SPR, peptide at 10 uM on acetylcholine receptor.

Consider KMPARR [6mer-2-1171], for which the Binding affinity in test [1] was determined as 40 RU.
As to RIDAKK [6mer-2-1185], the Binding affinity in test [1] was 42 RU.
Same read-out and setting: the figure for KNCIKK [6mer-2-1197] is 23 RU.
Take RMSHRR [6mer-2-1198]: the Binding affinity in test [1] amounted to 27 RU.
The same measure, in the same setting: next, RTDFKR [6mer-2-1137]: 22 RU; KACWKR [6mer-2-1181]: 32 RU; RNTDRK [6mer-2-1157]: 37 RU.
Same read-out and setting: the figure for RYTEKK [6mer-2-1176] is 43 RU; for RENNRK [6mer-2-1183] it is 35 RU.
In the case of KEKFRR [6mer-2-1186], in test [1], the Binding affinity is 27 RU.
Still for that read-out and setting: next, KKAMKR [6mer-2-1142]: 30 RU.
Turning to KTTWK [5mer-653], the Binding affinity (RU) in test [2] is 16 RU.
In test [1], KFTIRR [6mer-2-1170] yielded a Binding affinity of 25 RU.
The same measure, in the same setting: next, RTADRK [6mer-2-1187]: 36 RU; KTDVKK [6mer-2-1150]: 42 RU.
KHKNKR [6mer-2-1192] registered a Binding affinity in test [1] of 40 RU.
RYSKRR [6mer-2-1175] came in with a Binding affinity in test [1] of 34 RU.
KICERK [6mer-2-1169] had a Binding affinity in test [1] of 21 RU.
Turning to KNCERR [6mer-2-1172], in test [1], the Binding affinity was 36 RU.
Still for that read-out and setting: the figure for KTAPKK [6mer-2-1189] is 40 RU; for RAPARR [6mer-2-1188] it is 22 RU.
In the case of RNWAKK [6mer-2-1152], the Binding affinity in test [1] amounted to 37 RU.
Consider RFTVR [5mer-651], for which the Binding affinity (RU) in test [2] worked out at 11 RU.
Same read-out and setting: next, RPEDK [5mer-650]: 22 RU.
As for KIDFRR [6mer-2-1149], the Binding affinity in test [1] worked out at 21 RU.
For RESKKR [6mer-2-1196], the Binding affinity in test [1] was determined as 39 RU.
Still for that read-out and setting: the figure for KMNARR [6mer-2-1156] is 35 RU; for KACIRR [6mer-2-1190] it is 32 RU; for KMNKKR [6mer-2-1140] it is 29 RU.
Consider KYCDRK [6mer-2-1194], for which, in test [1], the Binding affinity amounted to 35 RU.
Same read-out and setting: next, KCCNKK [6mer-2-1173]: 38 RU.
Regarding KDADR [5mer-950], the Binding affinity (RU) in test [2] turned out to be 22 RU.
In turn, RAANRR [6mer-2-1180] had a Binding affinity in test [1] of 34 RU.
RHNDKR [6mer-2-1182] had a Binding affinity in test [1] of 30 RU.
The molecule KHKPKR [6mer-2-1153] had a Binding affinity in test [1] of 27 RU.
In test [1], KKADRK [6mer-2-1191] came in with a Binding affinity of 35 RU.
RYNHKR [6mer-2-1164] yielded a Binding affinity in test [1] of 33 RU.
On to RASEKR [6mer-2-1177], for which the Binding affinity in test [1] was 41 RU.
As for KCHFKK [6mer-2-1163], the Binding affinity in test [1] was 37 RU.
KACIKK [6mer-2-1143] gave a Binding affinity in test [1] of 42 RU.
In test [1], RIKAKK [6mer-2-1165] gave a Binding affinity of 30 RU.
KAKAKK [6mer-2-1139] showed a Binding affinity in test [1] of 39 RU.
In test [2], RYSFK [5mer-649] registered a Binding affinity (RU) of 20 RU.
Molecule KMTERK [6mer-2-1195] had a Binding affinity in test [1] of 25 RU.
For KAHFKK [6mer-2-1138], the Binding affinity in test [1] was 42 RU.
Regarding KTTVRK [6mer-2-1178], the Binding affinity in test [1] is 30 RU.
KMKPKK [6mer-2-1168] gave a Binding affinity in test [1] of 41 RU.
In turn, KMSERR [6mer-2-1162] yielded a Binding affinity in test [1] of 34 RU.
Still for that read-out and setting: next, KDMGKR [6mer-2-1159]: 40 RU.
RYMGR [5mer-951] gave a Binding affinity (RU) in test [2] of 18 RU.
In test [1], RNTNRK [6mer-2-1155] gave a Binding affinity of 25 RU.
REKIRR [6mer-2-1193] showed a Binding affinity in test [1] of 43 RU.
In test [1], REWGRK [6mer-2-1146] registered a Binding affinity of 32 RU.
In test [1], RYEARR [6mer-2-1154] yielded a Binding affinity of 30 RU.
Turning to KACVKK [6mer-2-1179], in test [1], the Binding affinity stood at 34 RU.
The same measure, in the same setting: the figure for KFWVRR [6mer-2-1184] is 22 RU.
RCAAR [5mer-652]: the Binding affinity (RU) in test [2] amounted to 23 RU.
KEKGKR [6mer-2-1148] showed a Binding affinity in test [1] of 34 RU.
Still for that read-out and setting: next, RHSFKK [6mer-2-1161]: 27 RU.
Turning to RITVKK [6mer-2-1160], the Binding affinity in test [1] worked out at 23 RU.
As for RIKNRR [6mer-2-1145], the Binding affinity in test [1] stood at 23 RU.
Take RDNIRK [6mer-2-1158]: in test [1], the Binding affinity amounted to 37 RU.
On to RCAPKR [6mer-2-1167], for which, in test [1], the Binding affinity was 27 RU.
In turn, KFMKKK [6mer-2-1147] gave a Binding affinity in test [1] of 35 RU.
Consider KMKMK [5mer-949], for which the Binding affinity (RU) in test [2] was found to be 26 RU.
Turning to RCEPRK [6mer-2-1174], the Binding affinity in test [1] stood at 21 RU.
In test [1], RYPVRK [6mer-2-1151] yielded a Binding affinity of 43 RU.
With KCSIKK [6mer-2-1166], in test [1], the Binding affinity was determined as 26 RU.
The same measure, in the same setting: the figure for RFEDRK [6mer-2-1144] is 39 RU; for KMKKKR [6mer-2-1136] it is 36 RU; for KCTGKR [6mer-2-1141] it is 32 RU.
Consider KTMHK [5mer-952], for which the Binding affinity (RU) in test [2] is 12 RU.
